B1: ZBTB22 (parent)
chain: RPFDCPVCNKKFKMKHHLTEHMKT
B2: TOR1AIP2 (parent)
chain: HHVADAYTSSQKVSPIQIDGAGRT

Variants of: B1
Test: protein stability index of a GFP-peptide fusion (GPS, HEK-293T) (PSI 1-6); higher = more stable
Settings: c terminus: a fixed tail appended
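Further: lentivirally expressed fusions sorted by FACS into six bins by GFP to DsRed ratio, PSI derived from sequencing read proportions per bin multiplied by bin number.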

Variant	protein stability index
RPFDCPVCNKKFKMKHHLTETMKT [H21T]	2.24
RPFDCPVCNKKFKMKHHLTEWMKT [H21W]	2.13
RPFDCPVCNKKFKMKHHLTEVMKT [H21V]	2.44
RPFDCPVCNKKFKMKHHLTEYMKT [H21Y]	2.2
RPFDCPVCNKKFKMKHHLTEHDKT [M22D]	3.1
RPFDCPVCNKKFKMKHHLTEHVKT [M22V]	1.89
RPFDCPVCNKKFKMKHHLTEHPKT [M22P]	2.48
RPFDCPVCNKKFKMKHHLTEHLKT [M22L]	2.95
RPFDCPVCNKKFKMKHHLTEHTKT [M22T]	2.38
RPFDCPVCNKKFKMKHHLTEHQKT [M22Q]	2.71
RPFDCPVCNKKFKMKHHLTEHRKT [M22R]	2.48
RPFDCPVCNKKFKMKHHLTEHHKT [M22H]	2.75
RPFDCPVCNKKFKMKHHLTEHKKT [M22K]	2.92
RPFDCPVCNKKFKMKHHLTEHWKT [M22W]	2.43
RPFDCPVCNKKFKMKHHLTEHNKT [M22N]	2.62
RPFDCPVCNKKFKMKHHLTEHYKT [M22Y]	2.72
RPFDCPVCNKKFKMKHHLTEHEKT [M22E]	3
RPFDCPVCNKKFKMKHHLTEHSKT [M22S]	2.29
RPFDCPVCNKKFKMKHHLTEHCKT [M22C]	2.93
RPFDCPVCNKKFKMKHHLTEHIKT [M22I]	2.15
RPFDCPVCNKKFKMKHHLTEHGKT [M22G]	2.68

Variant	protein stability index
RPFDCPVCNKKFKMKHHLTEHFKT [M22F]	2.3
RPFDCPVCNKKFKMKHHLTEHAKT [M22A]	2.48
RPFDCPVCNKKFKMKHHLTEHMKY [T24Y]	2.01
RPFDCPVCNKKFKMKHHLTEHMKL [T24L]	3.19
RPFDCPVCNKKFKMKHHLTEHMKN [T24N]	2.54
RPFDCPVCNKKFKMKHHLTEHMKR [T24R]	2.84
RPFDCPVCNKKFKMKHHLTEHMKS [T24S]	2.53
RPFDCPVCNKKFKMKHHLTEHMKK [T24K]	2.43
RPFDCPVCNKKFKMKHHLTEHMKP [T24P]	2.45
RPFDCPVCNKKFKMKHHLTEHMKH [T24H]	2.41
RPFDCPVCNKKFKMKHHLTEHMKV [T24V]	2.34
RPFDCPVCNKKFKMKHHLTEHMKC [T24C]	3.07
RPFDCPVCNKKFKMKHHLTEHMKM [T24M]	2.5
RPFDCPVCNKKFKMKHHLTEHMKE [T24E]	3.21
RPFDCPVCNKKFKMKHHLTEHMKQ [T24Q]	2.53
RPFDCPVCNKKFKMKHHLTEHMKG [T24G]	2.44
RPFDCPVCNKKFKMKHHLTEHMKW [T24W]	2.22
RPFDCPVCNKKFKMKHHLTEHMKF [T24F]	2.46
RPFDCPVCNKKFKMKHHLTEHMKD [T24D]	3.55
RPFDCPVCNKKFKMKHHLTEHMKA [T24A]	2.87
RPFDCPVCNKKFKMKHHLTEHMKI [T24I]	1.95

Variant	protein stability index
RPFDCPVCNKKFKMKHHLTEHMMT [K23M]	2.11
RPFDCPVCNKKFKMKHHLTEHMNT [K23N]	3.29
RPFDCPVCNKKFKMKHHLTEHMQT [K23Q]	3.34
RPFDCPVCNKKFKMKHHLTEHMRT [K23R]	2.26
RPFDCPVCNKKFKMKHHLTEHMIT [K23I]	2.38
RPFDCPVCNKKFKMKHHLTEHMDT [K23D]	2.61
RPFDCPVCNKKFKMKHHLTEHMET [K23E]	2.39
RPFDCPVCNKKFKMKHHLTEHMHT [K23H]	3.06
RPFDCPVCNKKFKMKHHLTEHMPT [K23P]	2.48
RPFDCPVCNKKFKMKHHLTEHMFT [K23F]	1.95
RPFDCPVCNKKFKMKHHLTEHMWT [K23W]	1.98
RPFDCPVCNKKFKMKHHLTEHMST [K23S]	2.4
RPFDCPVCNKKFKMKHHLTEHMTT [K23T]	2.38
RPFDCPVCNKKFKMKHHLTEHMGT [K23G]	2.99
RPFDCPVCNKKFKMKHHLTEHMAT [K23A]	2.3
RPFDCPVCNKKFKMKHHLTEHMVT [K23V]	2.37
RPFDCPVCNKKFKMKHHLTEHMYT [K23Y]	2.17
RPFDCPVCNKKFKMKHHLTEHMLT [K23L]	2.38
RPFDCPVCNKKFKMKHHLTEHMCT [K23C]	4.19

Variants of: B2
Test: as above
Settings: c terminus: a fixed tail appended

Variant	protein stability index
HHVAAAYTSSQKVSPIQIDGAGRT [D5A]	2.63
HHVAPAYTSSQKVSPIQIDGAGRT [D5P]	3.54
HHVAEAYTSSQKVSPIQIDGAGRT [D5E]	2.73
HHVAIAYTSSQKVSPIQIDGAGRT [D5I]	2.5
HHVAHAYTSSQKVSPIQIDGAGRT [D5H]	2.38
HHVARAYTSSQKVSPIQIDGAGRT [D5R]	3.6
HHVAGAYTSSQKVSPIQIDGAGRT [D5G]	3.97
HHVAVAYTSSQKVSPIQIDGAGRT [D5V]	2.7
HHVAQAYTSSQKVSPIQIDGAGRT [D5Q]	2.93
HHVANAYTSSQKVSPIQIDGAGRT [D5N]	3.33
HHVALAYTSSQKVSPIQIDGAGRT [D5L]	2.44
HHVAFAYTSSQKVSPIQIDGAGRT [D5F]	2.24
HHVAWAYTSSQKVSPIQIDGAGRT [D5W]	4.17
HHVAMAYTSSQKVSPIQIDGAGRT [D5M]	2.48
HHVATAYTSSQKVSPIQIDGAGRT [D5T]	3.68
HHVAKAYTSSQKVSPIQIDGAGRT [D5K]	3.19
HHVASAYTSSQKVSPIQIDGAGRT [D5S]	2.72
HHVACAYTSSQKVSPIQIDGAGRT [D5C]	2.46
HHVAYAYTSSQKVSPIQIDGAGRT [D5Y]	2.35
HWVADAYTSSQKVSPIQIDGAGRT [H2W]	2.96
HVVADAYTSSQKVSPIQIDGAGRT [H2V]	1.99
HDVADAYTSSQKVSPIQIDGAGRT [H2D]	4.75
HAVADAYTSSQKVSPIQIDGAGRT [H2A]	4.01
HFVADAYTSSQKVSPIQIDGAGRT [H2F]	3.77
HTVADAYTSSQKVSPIQIDGAGRT [H2T]	3.81
HKVADAYTSSQKVSPIQIDGAGRT [H2K]	4.32

Variant	protein stability index
HSVADAYTSSQKVSPIQIDGAGRT [H2S]	4.08
HIVADAYTSSQKVSPIQIDGAGRT [H2I]	2.08
HEVADAYTSSQKVSPIQIDGAGRT [H2E]	4.74
HCVADAYTSSQKVSPIQIDGAGRT [H2C]	3.5
HNVADAYTSSQKVSPIQIDGAGRT [H2N]	4.27
HYVADAYTSSQKVSPIQIDGAGRT [H2Y]	3.4
HQVADAYTSSQKVSPIQIDGAGRT [H2Q]	2.51
HGVADAYTSSQKVSPIQIDGAGRT [H2G]	4.15
HMVADAYTSSQKVSPIQIDGAGRT [H2M]	2.81
HPVADAYTSSQKVSPIQIDGAGRT [H2P]	3.87
HLVADAYTSSQKVSPIQIDGAGRT [H2L]	1.86
HRVADAYTSSQKVSPIQIDGAGRT [H2R]	3.67
HHAADAYTSSQKVSPIQIDGAGRT [V3A]	1.62
HHEADAYTSSQKVSPIQIDGAGRT [V3E]	3.12
HHFADAYTSSQKVSPIQIDGAGRT [V3F]	2.34
HHPADAYTSSQKVSPIQIDGAGRT [V3P]	4.2
HHMADAYTSSQKVSPIQIDGAGRT [V3M]	2.92
HHRADAYTSSQKVSPIQIDGAGRT [V3R]	2.95
HHKADAYTSSQKVSPIQIDGAGRT [V3K]	3.19
HHWADAYTSSQKVSPIQIDGAGRT [V3W]	2.42
HHSADAYTSSQKVSPIQIDGAGRT [V3S]	2.46
HHLADAYTSSQKVSPIQIDGAGRT [V3L]	3.77
HHHADAYTSSQKVSPIQIDGAGRT [V3H]	2.82
HHQADAYTSSQKVSPIQIDGAGRT [V3Q]	2.63
HHYADAYTSSQKVSPIQIDGAGRT [V3Y]	1.51
HHNADAYTSSQKVSPIQIDGAGRT [V3N]	2.04

Variant	protein stability index
HHIADAYTSSQKVSPIQIDGAGRT [V3I]	4.2
HHCADAYTSSQKVSPIQIDGAGRT [V3C]	1.75
HHGADAYTSSQKVSPIQIDGAGRT [V3G]	2.73
HHTADAYTSSQKVSPIQIDGAGRT [V3T]	3.1
HHDADAYTSSQKVSPIQIDGAGRT [V3D]	2.96
HHVFDAYTSSQKVSPIQIDGAGRT [A4F]	3.42
HHVVDAYTSSQKVSPIQIDGAGRT [A4V]	3.39
HHVTDAYTSSQKVSPIQIDGAGRT [A4T]	2.27
HHVNDAYTSSQKVSPIQIDGAGRT [A4N]	4.17
HHVEDAYTSSQKVSPIQIDGAGRT [A4E]	4.43
HHVYDAYTSSQKVSPIQIDGAGRT [A4Y]	4.04
HHVCDAYTSSQKVSPIQIDGAGRT [A4C]	2.84
HHVHDAYTSSQKVSPIQIDGAGRT [A4H]	3.43
HHVDDAYTSSQKVSPIQIDGAGRT [A4D]	4.76
HHVLDAYTSSQKVSPIQIDGAGRT [A4L]	3.99
HHVGDAYTSSQKVSPIQIDGAGRT [A4G]	4.25
HHVRDAYTSSQKVSPIQIDGAGRT [A4R]	3.95
HHVPDAYTSSQKVSPIQIDGAGRT [A4P]	2.34
HHVKDAYTSSQKVSPIQIDGAGRT [A4K]	3.86
HHVQDAYTSSQKVSPIQIDGAGRT [A4Q]	3.67
HHVIDAYTSSQKVSPIQIDGAGRT [A4I]	3.01
HHVWDAYTSSQKVSPIQIDGAGRT [A4W]	3.57
HHVMDAYTSSQKVSPIQIDGAGRT [A4M]	4.01
HHVSDAYTSSQKVSPIQIDGAGRT [A4S]	3.84
IHVADAYTSSQKVSPIQIDGAGRT [H1I]	3.14
EHVADAYTSSQKVSPIQIDGAGRT [H1E]	4.66

Variant	protein stability index
PHVADAYTSSQKVSPIQIDGAGRT [H1P]	3.85
LHVADAYTSSQKVSPIQIDGAGRT [H1L]	3.81
THVADAYTSSQKVSPIQIDGAGRT [H1T]	3.94
NHVADAYTSSQKVSPIQIDGAGRT [H1N]	4.53
YHVADAYTSSQKVSPIQIDGAGRT [H1Y]	3.09
WHVADAYTSSQKVSPIQIDGAGRT [H1W]	3.68
SHVADAYTSSQKVSPIQIDGAGRT [H1S]	4.3
DHVADAYTSSQKVSPIQIDGAGRT [H1D]	4.91
VHVADAYTSSQKVSPIQIDGAGRT [H1V]	3.86
RHVADAYTSSQKVSPIQIDGAGRT [H1R]	4.33
MHVADAYTSSQKVSPIQIDGAGRT [H1M]	3.93
AHVADAYTSSQKVSPIQIDGAGRT [H1A]	4.54
QHVADAYTSSQKVSPIQIDGAGRT [H1Q]	4.15
GHVADAYTSSQKVSPIQIDGAGRT [H1G]	4.43
FHVADAYTSSQKVSPIQIDGAGRT [H1F]	2.69
CHVADAYTSSQKVSPIQIDGAGRT [H1C]	3.67
KHVADAYTSSQKVSPIQIDGAGRT [H1K]	3.94
HHVADADTSSQKVSPIQIDGAGRT [Y7D]	4.67
HHVADAKTSSQKVSPIQIDGAGRT [Y7K]	4.65
HHVADAMTSSQKVSPIQIDGAGRT [Y7M]	4.7
HHVADAGTSSQKVSPIQIDGAGRT [Y7G]	4.6
HHVADAPTSSQKVSPIQIDGAGRT [Y7P]	4.91
HHVADACTSSQKVSPIQIDGAGRT [Y7C]	4.19
HHVADALTSSQKVSPIQIDGAGRT [Y7L]	4.55
HHVADAITSSQKVSPIQIDGAGRT [Y7I]	4.75
HHVADAATSSQKVSPIQIDGAGRT [Y7A]	5.04

Variant	protein stability index
HHVADANTSSQKVSPIQIDGAGRT [Y7N]	4.89
HHVADAETSSQKVSPIQIDGAGRT [Y7E]	4.97
HHVADAFTSSQKVSPIQIDGAGRT [Y7F]	2.73
HHVADAHTSSQKVSPIQIDGAGRT [Y7H]	4.84
HHVADTYTSSQKVSPIQIDGAGRT [A6T]	4.02
HHVADYYTSSQKVSPIQIDGAGRT [A6Y]	3.32
HHVADLYTSSQKVSPIQIDGAGRT [A6L]	3.2
HHVADPYTSSQKVSPIQIDGAGRT [A6P]	4.3
HHVADIYTSSQKVSPIQIDGAGRT [A6I]	3.67
HHVADQYTSSQKVSPIQIDGAGRT [A6Q]	4.32
HHVADFYTSSQKVSPIQIDGAGRT [A6F]	2.69
HHVADNYTSSQKVSPIQIDGAGRT [A6N]	4.26
HHVADWYTSSQKVSPIQIDGAGRT [A6W]	2.19
HHVADMYTSSQKVSPIQIDGAGRT [A6M]	3.46
HHVADCYTSSQKVSPIQIDGAGRT [A6C]	3.98
HHVADDYTSSQKVSPIQIDGAGRT [A6D]	4.19
HHVADEYTSSQKVSPIQIDGAGRT [A6E]	4.77
HHVADKYTSSQKVSPIQIDGAGRT [A6K]	4.03
HHVADRYTSSQKVSPIQIDGAGRT [A6R]	3.95
HHVADVYTSSQKVSPIQIDGAGRT [A6V]	3.48
HHVADGYTSSQKVSPIQIDGAGRT [A6G]	4.39
HHVADSYTSSQKVSPIQIDGAGRT [A6S]	4.14
HHVADHYTSSQKVSPIQIDGAGRT [A6H]	3.85

Source: the supplement of paper PMC10567573
